Experimental data from patent US20030235860A1, “Interactions between AR, ER, TR2, and TR4” (priority 1999, published 2003).

Legend:
PSA = experiment: Northern blot of endogenous PSA in LNCaP cells; type: cell-based, human; details: LNCaP cells
Experimental: Total RNA from the DHT-treated transfected LNCaP cells was prepared by the ultracentrifugation method as described. Lee, et al., J: Biol. Chem. 273, 13437-13443 (1998). The probe was obtained from exon 3 of PSA gene and labeled with a-32p dCTP.
To rule out the potential artificial effects linked to transfected reporter assays, the expression of endogenous prostate specific antigen (PSA, an androgen target that is widely used as a marker for prostate cancer progression) in LNCaP cells was measured by Northern blot analysis. Total RNA (25 μg) from LNCaP cells, which were transfected with either pCMX-TR4 or pCMX vector using SuperFect (Qiagen), was applied into a formamide RNA gel, then transferred onto a Nylon membrane, and then hybridized with a 32P-PSA gene fragment from the exon 3. P-actin was used as an internal control. […] The level of secreted PSA protein in the medium measured by ELISA, also confirmed this conclusion. This in vivo TR4-mediated suppressive effect strongly supports the above reporter assays.
Total RNA from transfected LNCaP cells was prepared using TRIZOL reagents (Life Technology) as instructed by manufacturer. The probe was obtained from the PSA gene by PCR and labeled with 32P dCTP. Northern hybridization was performed as described previously [Mu X. M. et al. (2002) J Biol Chem 275:23877-23883].

MCF7-TR2 cells = experiment: MTT growth assay, MCF7-TR2 cells; type: cell-based; details: MCF7-TR2 cells; 10 nM E2, and/or 2 mg/ml doxycycline (TR2 induction)
Experimental: (A) Growth assays were performed by MTT method as instructed by manufacturer (Sigma). 5×10^3 MCF7-pBIG and MCF7-TR2 cells were seeded in 24-well plates and incubated in RPMI with 10% CD-FCS for 48 h. […] After 3- and 5-day treatment, cells were harvested for MTT assay. Data represents the relative folds of MTT O.D.570 values at day 5 divided by that at day 3. […] Cells were then trypsinized and fixed overnight in 70% Ethanol. After cells were incubated with 1 mg/ml RNase A (Sigma) and propidium iodide (Roche Molecular Biochemicals), the DNA contents of cells were measured by a flow cytometry. (C) Percentage of growth suppression by TR2. MCF7-TR2 cells were seeded at 5×10^3 cells per well in 24-well plates. […] The treatments were changed every two days. The indices of cell growth were determined by MTT assay. The MTT values from cells without doxycycline were set as 100% in each kind of treatment. Values are represented by the percentage of growth suppression from cells with doxycycline to that without doxycycline.

[1] = target: T1, estrogen receptor (ER), full-length (human, UniProt P03372 1-595); experiment: Table 4, summary of interactions tested; assay not given
T1 construct: 35S-labeled when in vitro translated for the pull-downs; endogenous in MCF7 cells for the co-immunoprecipitation; also called ERα; pSG5-ER
T1 sequence: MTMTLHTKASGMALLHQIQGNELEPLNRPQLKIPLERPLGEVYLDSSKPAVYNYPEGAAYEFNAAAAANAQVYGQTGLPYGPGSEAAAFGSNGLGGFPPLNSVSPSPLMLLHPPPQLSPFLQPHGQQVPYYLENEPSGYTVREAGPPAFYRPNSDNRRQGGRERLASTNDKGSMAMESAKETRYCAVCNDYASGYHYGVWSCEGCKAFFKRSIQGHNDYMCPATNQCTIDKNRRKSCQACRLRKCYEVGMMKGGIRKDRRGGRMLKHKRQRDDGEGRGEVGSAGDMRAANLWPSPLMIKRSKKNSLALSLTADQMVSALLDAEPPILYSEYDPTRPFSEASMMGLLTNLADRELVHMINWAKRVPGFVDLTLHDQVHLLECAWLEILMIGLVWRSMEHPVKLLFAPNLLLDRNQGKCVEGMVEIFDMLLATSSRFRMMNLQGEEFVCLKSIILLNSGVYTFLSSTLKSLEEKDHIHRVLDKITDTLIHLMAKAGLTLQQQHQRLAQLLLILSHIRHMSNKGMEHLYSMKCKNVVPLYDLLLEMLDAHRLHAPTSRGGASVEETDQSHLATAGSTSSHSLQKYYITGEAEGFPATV

TR2 = target: T2, TR2 (Homo sapiens, UniProt P13056); experiment: GST-ER fragment pull-down of [35S]-TR2; type: binding; set-up: host or cells: in vitro translation, TNT reticulocyte lysate; details: for Interaction with [35S]-TR2: GST-ER fragments, presence of 1 μM E2, Example 1; for Interaction with TR2: GST-fused ER peptides, presence or absence of E2, Example 2
T2 sequence (P13056 1-603): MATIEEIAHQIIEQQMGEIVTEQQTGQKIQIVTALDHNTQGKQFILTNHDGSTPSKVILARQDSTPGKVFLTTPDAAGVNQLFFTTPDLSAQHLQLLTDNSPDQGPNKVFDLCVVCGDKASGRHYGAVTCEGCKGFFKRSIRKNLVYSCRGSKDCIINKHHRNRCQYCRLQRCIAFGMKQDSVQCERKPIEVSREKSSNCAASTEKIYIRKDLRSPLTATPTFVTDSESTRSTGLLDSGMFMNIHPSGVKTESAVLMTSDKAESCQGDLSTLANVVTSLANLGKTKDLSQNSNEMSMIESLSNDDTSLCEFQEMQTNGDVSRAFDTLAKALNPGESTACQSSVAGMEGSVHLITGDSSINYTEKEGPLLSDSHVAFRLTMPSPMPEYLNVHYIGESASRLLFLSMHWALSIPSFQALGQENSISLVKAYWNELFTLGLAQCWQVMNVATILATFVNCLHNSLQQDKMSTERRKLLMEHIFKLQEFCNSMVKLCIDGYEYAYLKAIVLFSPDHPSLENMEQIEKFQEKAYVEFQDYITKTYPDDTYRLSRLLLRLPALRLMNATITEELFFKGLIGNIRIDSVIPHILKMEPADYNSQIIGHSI
Experimental: Fusion proteins of GST-TR2, GST-ER segments and GST were obtained by transforming expressing plasmids into BL21(DE3) pLysS competent bacteria followed with 2-hour IPTG induction. GST-proteins were then purified by mixing Glutathione-Sepharose™ 4B (Pharmacia) into bacteria lysates on a rotating disk at 4° C. for 40 mm followed by washing with 1 mL NENT buffer (20 mM Tris-HCL (pH 8.0), 100 mM NaCl, 1 mM EDTA, 6 mM MgCl2, 1 mM Dithiothretiol, 8% Glycerol, 1 mM PMSF and 0.5% (v/v) NP-40). The ER, AR, RXRA., and TR2 proteins labeled with [35S] were generated in vitro by using the TNT reticulocyte lysate system (Promega). For the in vitro interaction, the glutathione-Sepharose bound GST-proteins were resuspended with 100 μl of interaction buffer (20 mM HEPES pH 7.9, 150 mM KCl, 5 mM MgCl2. 0.5 mM EDTA, 0.5 mM Dithiothretiol, 0.1% (v/v) NP-40, 0.1% (w/v) BSA and 1 mM PMSF) and mixed with 5 μl of […] at 4° C. for 3 h. After extensive washes with NENT buffer, the bound proteins were separated on an SDS/8% PAGE and visualized by using autoradiography.
The in vitro GST pull-down assay was applied to examine the interaction between the TR2 and ER. In vitro-translated, [35S]-labeled ER, AR, and RXRα proteins were incubated with GST or GST-TR2 bound on glutathione-Sepharose beads. After extensive washing, proteins were separated on an SDS/8% PAGE and visualized by using autoradiography.
GST alone and GST fusion proteins were purified by Glutathione-Sepharose 4B beads as instructed by manufacturer (Amersham Pharmacia). The pull-down assay was performed with 5 μl of in vitro-translated [^35S]-labeled proteins as described previously (Yeh, S. et al. (2000) Proc. Natl. Acad. Sci. USA 97, 11256-61).

Molecule: C[C@]12CCC(=O)C[C@@H]1CC[C@@H]1[C@@H]2CC[C@]2(C)[C@@H](O)CC[C@@H]12 [DHT, hihydroxytestosterone, reference compound]
- PSA mRNA expression (PSA; 10 nM DHT, pCMV-TR2, Example 4): induces PSA mRNA expression
- Induction of PSA transcript (PSA; 24 hours of DHT treatment): about 2.5 fold

Molecule: C[C@H]1c2cccc(O)c2C(=O)C2=C(O)[C@]3(O)C(=O)C(C(N)=O)=C(O)[C@@H](N(C)C)[C@@H]3[C@@H](O)[C@@H]21 [doxycycline, reference compound]
- Cell growth, relative folds of MTT O.D.570 at day 5 divided by day 3 (MCF7-TR2 cells): 11.1 fold

B1: TR2 DBD (row label of Table 4) (receptor)
chain: DLSAQHLQLLTDNSPDQGPNKVFDLCVVCGDKASGRHYGAVTCEGCKGFFKRSIRKNLVYSCRGSKDCIINKHHRNRCQYCRLQRCIAFGMKQDSVQCERKPIEVSREK
notes: not shown: GST fusion partner of pGEX-KG (GST-TR2-#2)
- binding result [1]: binds

B2: GST-ER-DBD: GST fusion of aa 123-340 of ER (protein)
chain: PHGQQVPYYLENEPSGYTVREAGPPAFYRPNSDNRRQGGRERLASTNDKGSMAMESAKETRYCAVCNDYASGYHYGVWSCEGCKAFFKRSIQGHNDYMCPATNQCTIDKNRRKSCQACRLRKCYEVGMMKGGIRKDRRGGRMLKHKRQRDDGEGRGEVGSAGDMRAANLWPSPLMIKRSKKNSLALSLTADQMVSALLDAEPPILYSEYDPTRPFSEA
modifications: left off: a dimerising Fc or GST; small tags and cut ends
notes: GST fusion of aa 123-340 of ER
- Interaction with [35S]-TR2 (TR2): not

B3: GST-ER-#2: GST fusion of ER aa 123-340 (protein)
chain: B2 chain
modifications: left off: a dimerising Fc or GST; small tags and cut ends
- Interaction with TR2 (TR2): can interact

B4: TR2 N-T (row label of Table 4) (receptor)
chain: MATIEEIAHQIIEQQMGEIVTEQQTGQKIQIVTALDHNTQGKQFILTNHDGSTPSKVILARQDSTPGKVFLTTPDAAGVNQLFFTTPDLSAQHLQLLTDNSPDQGPNKVFDL
notes: also called TR2 N-terminal domain; not shown: GST fusion partner of pGEX-KG (GST-TR2-#1)
- binding result [1]: no binding

B5: TR4 LBD (row label of Table 4) (receptor)
chain: AASTEKIYIRKDLRSPLIATPTFVADKDGARQTGLLDPGMLVNIQQPLIREDGTVLLATDSKAETSQGALGTLANVVTSLANLSESLNNGDTSEIQPEDQSASEITRAFDTLAKALNTTDSSSSPSLADGIDTSGGGSIHVISRDQSTPIIEVEGPLLSDTHVTFKLTMPSPMPEYLNVHYICESASRLLFLSMHRARSIPAFQGLGQDCNTSLVRACWNELFTLGLAQCAQVMSLSTILAAIVNHLQNSIQEDKLSGDRIKQVMEHIWKLQEFCNSMANWDIDGYEYAYLKAIVLFSPDHPGLTSTSQIEKFQEKAQMELQDYVQKTYSEDTYRLARILVRLPALRLMSSNITEELFFTGLIGNVSIDSIIPYILKMETAEYNGQITGVSL
notes: not shown: Fusion partner: GST in the pull-down with ER, GAL4-DBD in the hybrid assays with AR
- binding result [1]: binds

B6: GST-ER-N: GST fusion of aa 1-165 of ER (protein)
chain: MTMTLHTKASGMALLHQIQGNELEPLNRPQLKIPLERPLGEVYLDSSKPAVYNYPEGAAYEFNAAAAANAQVYGQTGLPYGPGSEAAAFGSNGLGGFPPLNSVSPSPLMLLHPPPQLSPFLQPHGQQVPYYLENEPSGYTVREAGPPAFYRPNSDNRRQGGRERL
modifications: left off: a dimerising Fc or GST; small tags and cut ends
notes: GST fusion of aa 1-165 of ER
- Interaction with [35S]-TR2 (TR2): not

B7: GST-ER-#I: GST fusion of ER aa 1-165 (protein)
chain: B6 chain
modifications: left off: a dimerising Fc or GST; small tags and cut ends
- Interaction with TR2 (TR2): not
